Bridge positions count the residues as written; N and C are the ends. Square brackets hold non-standard residues; d marks the D form. Ends that are not written are not given here. Pro(cis-4-CF3) = O=C(O)[C@@H]1C[C@H](C(F)(F)F)CN1; Oic = O=C(O)[C@@H]1C[C@@H]2CCCC[C@@H]2N1; PEG8 = NCCOCCOCCOCCOCCOCCOCCOCCOCCC(=O)O; Phe(2-Br) = N[C@@H](Cc1ccccc1Br)C(=O)O; NMeI = CC[C@H](C)[C@H](NC)C(=O)O; tBuAla = CC(C)(C)C[C@H](N)C(=O)O; Pen = CC(C)(S)[C@H](N)C(=O)O; NMeC = CN[C@@H](CS)C(=O)O; Orn = NCCC[C@H](N)C(=O)O; Abu = CC[C@H](N)C(=O)O; Sar = CNCC(=O)O
T1: recombinant rat MASP1 active protease (amino acids 302-704, C-terminal His Tag) (rat, UniProt Q8CHN8 302-704)
T1 sequence: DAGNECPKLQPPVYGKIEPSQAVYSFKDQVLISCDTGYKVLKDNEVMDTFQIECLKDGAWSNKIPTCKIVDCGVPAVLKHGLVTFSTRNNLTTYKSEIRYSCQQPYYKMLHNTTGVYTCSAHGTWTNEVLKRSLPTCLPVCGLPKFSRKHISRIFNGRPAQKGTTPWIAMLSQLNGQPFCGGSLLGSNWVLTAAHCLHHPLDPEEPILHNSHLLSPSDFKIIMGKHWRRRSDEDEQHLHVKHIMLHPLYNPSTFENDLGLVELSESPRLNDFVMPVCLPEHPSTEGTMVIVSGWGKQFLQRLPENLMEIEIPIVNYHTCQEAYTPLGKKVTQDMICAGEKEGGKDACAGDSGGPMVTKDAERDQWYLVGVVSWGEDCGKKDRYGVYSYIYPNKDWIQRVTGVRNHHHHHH


biological target: T1, recombinant rat MASP1 active protease …; test: cell-based or functional assay

Binder	rat MASP1 IC50
AICSRSLP[Oic]I[NMeC]IP-NH2 (disulfide 3-11; N-terminus assumed; SMILES CC[C@H](C)[C@H](NC(=O)[C@H](C)N)C(=O)N[C@H]1CSSC[C@@H](C(=O)N[C@H](C(=O)N2CCC[C@H]2C(N)=O)[C@@H](C)CC)N(C)C(=O)[C@H]([C@@H](C)CC)NC(=O)[C@@H]2C[C@@H]3CCCC[C@@H]3N2C(=O)[C@@H]2CCCN2C(=O)[C@H](CC(C)C)NC(=O)[C@H](CO)NC(=O)[C@H](CCCNC(=N)N)NC(=O)[C@H](CO)NC1=O) [Example 123: AIC+SRSLP-(Oic)-I-((N-Me)C)+IP-NH2]	59 nM
SICSRS[tBuAla]PPI[NMeC]I-NH2 (disulfide 3-11; N-terminus assumed; SMILES CC[C@H](C)[C@H](NC(=O)[C@@H]1CSSC[C@H](NC(=O)[C@@H](NC(=O)[C@@H](N)CO)[C@@H](C)CC)C(=O)N[C@@H](CO)C(=O)N[C@@H](CCCNC(=N)N)C(=O)N[C@@H](CO)C(=O)N[C@@H](CC(C)(C)C)C(=O)N2CCC[C@H]2C(=O)N2CCC[C@H]2C(=O)N[C@@H]([C@@H](C)CC)C(=O)N1C)C(N)=O) [Example 103: SIC+SRS-((tBu)A)-PPI-((N-Me)C)+I-NH2]	110 nM
AICSRS[tBuAla]PPI[Pen]IPD-NH2 (disulfide 3-11; N-terminus assumed; SMILES CC[C@H](C)[C@H](NC(=O)[C@H](C)N)C(=O)N[C@H]1CSSC(C)(C)[C@@H](C(=O)N[C@H](C(=O)N2CCC[C@H]2C(=O)N[C@@H](CC(=O)O)C(N)=O)[C@@H](C)CC)NC(=O)[C@H]([C@@H](C)CC)NC(=O)[C@@H]2CCCN2C(=O)[C@@H]2CCCN2C(=O)[C@H](CC(C)(C)C)NC(=O)[C@H](CO)NC(=O)[C@H](CCCNC(=N)N)NC(=O)[C@H](CO)NC1=O) [Example 98: AIC+SRS-((tBu)A)-PPI-(Pen)+IPD-NH2]	17 nM
[Sar]ICSRS[tBuAla]PPI[Pen]IP-{PEG8-NH2} (disulfide 3-11) [Example 74: ((N-Me)G)-IC+SRS-((tBu)A)-PPI-(Pen)+IP-(PEG8(28 atoms))-NH2]	71 nM
AICSRSLP[rel‑(1R,3R,5R,6R)‑6‑(Trifluoromethyl)‑2‑azabicyclo(3.1.0)hexane‑3‑carboxylic acid]ICIPD-NH2 (disulfide 3-11)	140 nM
AICSRS[tBuAla]P[Oic]ICI-NH2 (disulfide 3-11; N-terminus assumed; SMILES CC[C@H](C)[C@H](NC(=O)[C@@H]1CSSC[C@H](NC(=O)[C@@H](NC(=O)[C@H](C)N)[C@@H](C)CC)C(=O)N[C@@H](CO)C(=O)N[C@@H](CCCNC(=N)N)C(=O)N[C@@H](CO)C(=O)N[C@@H](CC(C)(C)C)C(=O)N2CCC[C@H]2C(=O)N2[C@@H](C[C@@H]3CCCC[C@@H]32)C(=O)N[C@@H]([C@@H](C)CC)C(=O)N1)C(N)=O) [Example 99: AIC+SRS-((tBu)A)-P-(Oic)-IC+I-NH2]	220 nM
[Orn]ICSRS[tBuAla]PPI[NMeC]IPD-NH2 (disulfide 3-11; N-terminus assumed; SMILES CC[C@H](C)[C@H](NC(=O)[C@@H](N)CCCN)C(=O)N[C@H]1CSSC[C@@H](C(=O)N[C@H](C(=O)N2CCC[C@H]2C(=O)N[C@@H](CC(=O)O)C(N)=O)[C@@H](C)CC)N(C)C(=O)[C@H]([C@@H](C)CC)NC(=O)[C@@H]2CCCN2C(=O)[C@@H]2CCCN2C(=O)[C@H](CC(C)(C)C)NC(=O)[C@H](CO)NC(=O)[C@H](CCCNC(=N)N)NC(=O)[C@H](CO)NC1=O) [Example 77: (Orn)-IC+SRS-((tBu)A)-PPI-((N-Me)C)+IPD-NH2]	66 nM
AICSRS[tBuAla]PPI[NMeC]IPD-OH (disulfide 3-11; N-terminus assumed; SMILES CC[C@H](C)[C@H](NC(=O)[C@H](C)N)C(=O)N[C@H]1CSSC[C@@H](C(=O)N[C@H](C(=O)N2CCC[C@H]2C(=O)N[C@@H](CC(=O)O)C(=O)O)[C@@H](C)CC)N(C)C(=O)[C@H]([C@@H](C)CC)NC(=O)[C@@H]2CCCN2C(=O)[C@@H]2CCCN2C(=O)[C@H](CC(C)(C)C)NC(=O)[C@H](CO)NC(=O)[C@H](CCCNC(=N)N)NC(=O)[C@H](CO)NC1=O) [Example 86: AIC+SRS-((tBu)A)-PPI-((N-Me)C)+IPD-OH]	16 nM
LICSRS[tBuAla]PPI[NMeC]I-NH2 (disulfide 3-11; N-terminus assumed; SMILES CC[C@H](C)[C@H](NC(=O)[C@@H]1CSSC[C@H](NC(=O)[C@@H](NC(=O)[C@@H](N)CC(C)C)[C@@H](C)CC)C(=O)N[C@@H](CO)C(=O)N[C@@H](CCCNC(=N)N)C(=O)N[C@@H](CO)C(=O)N[C@@H](CC(C)(C)C)C(=O)N2CCC[C@H]2C(=O)N2CCC[C@H]2C(=O)N[C@@H]([C@@H](C)CC)C(=O)N1C)C(N)=O) [Example 65: LIC+SRS-((tBu)A)-PPI-((N-Me)C)+I-NH2]	7.2 nM
Ac-G[NMeI]CSRSLPPICIPD-OH (disulfide 3-11; SMILES CC[C@H](C)[C@@H]1NC(=O)[C@@H]2CCCN2C(=O)[C@@H]2CCCN2C(=O)[C@H](CC(C)C)NC(=O)[C@H](CO)NC(=O)[C@H](CCCNC(=N)N)NC(=O)[C@H](CO)NC(=O)[C@@H](NC(=O)[C@H]([C@@H](C)CC)N(C)C(=O)CNC(C)=O)CSSC[C@@H](C(=O)N[C@H](C(=O)N2CCC[C@H]2C(=O)N[C@@H](CC(=O)O)C(=O)O)[C@@H](C)CC)NC1=O) [Example 59: Ac-G-((N-Me)I)-C+SRSLPPIC+IPD-OH]	250 nM
AICSRS[tBuAla]P[Oic]I[Pen]IPD-NH2 (disulfide 3-11; N-terminus assumed; SMILES CC[C@H](C)[C@H](NC(=O)[C@H](C)N)C(=O)N[C@H]1CSSC(C)(C)[C@@H](C(=O)N[C@H](C(=O)N2CCC[C@H]2C(=O)N[C@@H](CC(=O)O)C(N)=O)[C@@H](C)CC)NC(=O)[C@H]([C@@H](C)CC)NC(=O)[C@@H]2C[C@@H]3CCCC[C@@H]3N2C(=O)[C@@H]2CCCN2C(=O)[C@H](CC(C)(C)C)NC(=O)[C@H](CO)NC(=O)[C@H](CCCNC(=N)N)NC(=O)[C@H](CO)NC1=O) [Example 108: AIC+SRS-((tBu)A)-P-(Oic)-I-(Pen)+IPD-NH2]	11 nM
[Sar]ICSRS[tBuAla]PPI[Pen]IP-{PEG4‑CH2CO2H (15 atoms)-NH2} (disulfide 3-11) [Example 73: ((N-Me)G)-IC+SRS-((tBu)A)-PPI-(Pen)+IP-(PEG4-CH2CO2H (15 atoms))-NH2]	43 nM
[Abu]ICSRS[tBuAla]PPICIPD-NH2 (disulfide 3-11; N-terminus assumed; SMILES CC[C@H](N)C(=O)N[C@H](C(=O)N[C@H]1CSSC[C@@H](C(=O)N[C@H](C(=O)N2CCC[C@H]2C(=O)N[C@@H](CC(=O)O)C(N)=O)[C@@H](C)CC)NC(=O)[C@H]([C@@H](C)CC)NC(=O)[C@@H]2CCCN2C(=O)[C@@H]2CCCN2C(=O)[C@H](CC(C)(C)C)NC(=O)[C@H](CO)NC(=O)[C@H](CCCNC(=N)N)NC(=O)[C@H](CO)NC1=O)[C@@H](C)CC) [Example 66: (Abu)-IC+SRS-((tBu)A)-PPIC+IPD-NH2]	70 nM
AICSRS[tBuAla]P[Pro(cis-4-CF3)]I[NMeC]IPD-NH2 (disulfide 3-11; N-terminus assumed; SMILES CC[C@H](C)[C@H](NC(=O)[C@H](C)N)C(=O)N[C@H]1CSSC[C@@H](C(=O)N[C@H](C(=O)N2CCC[C@H]2C(=O)N[C@@H](CC(=O)O)C(N)=O)[C@@H](C)CC)N(C)C(=O)[C@H]([C@@H](C)CC)NC(=O)[C@@H]2C[C@H](C(F)(F)F)CN2C(=O)[C@@H]2CCCN2C(=O)[C@H](CC(C)(C)C)NC(=O)[C@H](CO)NC(=O)[C@H](CCCNC(=N)N)NC(=O)[C@H](CO)NC1=O) [Example 128: AIC+SRS-((tBu)A)-P-((4-CF3)P)-I-((N-Me)C)+IPD-NH2]	35 nM
AICSRS[Phe(2-Br)]PPI[Pen]IPD-NH2 (disulfide 3-11; N-terminus assumed; SMILES CC[C@H](C)[C@H](NC(=O)[C@H](C)N)C(=O)N[C@H]1CSSC(C)(C)[C@@H](C(=O)N[C@H](C(=O)N2CCC[C@H]2C(=O)N[C@@H](CC(=O)O)C(N)=O)[C@@H](C)CC)NC(=O)[C@H]([C@@H](C)CC)NC(=O)[C@@H]2CCCN2C(=O)[C@@H]2CCCN2C(=O)[C@H](Cc2ccccc2Br)NC(=O)[C@H](CO)NC(=O)[C@H](CCCNC(=N)N)NC(=O)[C@H](CO)NC1=O) [Example 104: AIC+SRS-((2-Bromo)F)-PPI-(Pen)+IPD-NH2]	77 nM
[Orn]ICSRS[tBuAla]PPI[NMeC]IPD-NH2 (disulfide 3-11; also: HCl salt) [Example 78: (Orn)-IC+SRS-((tBu)A)-PPI-((N-Me)C)+IPD-NH2 (HCl salt)]	48 nM
KICSRS[tBuAla]PPI[NMeC]I-NH2 (disulfide 3-11; N-terminus assumed; SMILES CC[C@H](C)[C@H](NC(=O)[C@@H]1CSSC[C@H](NC(=O)[C@@H](NC(=O)[C@@H](N)CCCCN)[C@@H](C)CC)C(=O)N[C@@H](CO)C(=O)N[C@@H](CCCNC(=N)N)C(=O)N[C@@H](CO)C(=O)N[C@@H](CC(C)(C)C)C(=O)N2CCC[C@H]2C(=O)N2CCC[C@H]2C(=O)N[C@@H]([C@@H](C)CC)C(=O)N1C)C(N)=O) [Example 79: KIC+SRS-((tBu)A)-PPI-((N-Me)C)+I-NH2]	85 nM
